This assay has as its target Full length human CD40 (huCD40) on cells (human) (UniProt P25942). Nature of the assay: cell-based or functional assay.

Full length human CD40 (huCD40) on cells (human), sequence (P25942 21-277): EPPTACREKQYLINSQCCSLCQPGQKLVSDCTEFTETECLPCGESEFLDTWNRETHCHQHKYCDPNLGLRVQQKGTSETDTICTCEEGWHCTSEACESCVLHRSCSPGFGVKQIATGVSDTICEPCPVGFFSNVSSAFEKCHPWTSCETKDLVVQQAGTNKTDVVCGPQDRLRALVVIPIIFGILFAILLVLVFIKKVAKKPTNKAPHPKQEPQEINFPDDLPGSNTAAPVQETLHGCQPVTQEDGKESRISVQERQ
CP-870,893 (antibody), sequence (VH): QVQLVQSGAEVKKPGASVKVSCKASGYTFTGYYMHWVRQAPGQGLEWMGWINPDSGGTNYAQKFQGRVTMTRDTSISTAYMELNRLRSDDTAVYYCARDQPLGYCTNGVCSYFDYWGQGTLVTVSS
CP-870,893 (antibody), sequence (VL): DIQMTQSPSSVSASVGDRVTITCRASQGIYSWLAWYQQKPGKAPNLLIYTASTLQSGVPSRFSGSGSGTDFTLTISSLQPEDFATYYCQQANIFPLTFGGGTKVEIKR

As to CP-870,893 (antibody), the B cells EC50, CD23 surface expression, no cross-linker worked out at 3.17 ng/mL; the B cells EC50, CD80 surface expression, no cross-linker is 7.34 ng/mL; the B cells EC50, CD83 surface expression, no cross-linker amounted to 4.28 ng/mL; the B cells EC50, CD86 surface expression, no cross-linker stood at 4.04 ng/mL. For the same substance, the B cells EC50, HLA-DR surface expression, no cross-linker was 8.15 ng/mL; the DC EC50, CD80 surface expression, no cross-linker was 44.7 ng/mL; the DC EC50, CD83 surface expression, no cross-linker worked out at 245 ng/mL; the DC EC50, CD86 surface expression, no cross-linker came out at 133 ng/mL. This substance also returned a DC EC50, HLA-DR surface expression, no cross-linker of 242 ng/mL.
